# Data taken from the supplement of paper PMC9732359.
# ± gives the uncertainty stated by the source.
# Assay: protein stability index of a GFP-peptide fusion (yeast GPS) (PSI 1-4); higher = more stable; sorted into four equal gates, so the index is relative within each strain
# In short: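 Mid-log yeast cultures in leucine-free medium, carrying a pooled plasmid library, were sorted into four equal gates by their GFP/Cherry fluorescence ratio. Each plasmid expressed Cherry along with GFP fused upstream of a tiled 17-residue yeast protein peptide. Plasmids recovered from each gate were PCR-amplified and Illumina-sequenced, with reads assigned to strains by barcodes. The protein stability index was obtained by summing each gate's read frequency weighted by its gate number.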
Sequence,protein stability index (doa10∆),protein stability index (pdr5∆),protein stability index (san1∆),protein stability index (ubr1∆)
SNQRFKDLQWLEFARIT [SIN4],3.17 ± 0.064,3.13 ± 0.057,2.74 ± 0.068,3.15 ± 0.073
NDILDELLCGMANKEWR [ECM29],2.37 ± 0.14,1.47 ± 0.098,2.72 ± 0.15,1.6 ± 0.061
EEKSNEVKTPKIPLFTF [SIR4],2.82 ± 0.061,2.94 ± 0.065,2.57 ± 0.048,2.79 ± 0.047
TTNLDIDLLTFQYGSRL [RPP1],3.29 ± 0.087,3.22 ± 0.073,3.06 ± 0.092,2.98 ± 0.055
KRQFNNSYWLIILLGVL [ITC1],2.16 ± 0.066,1.6 ± 0.056,1.5 ± 0.1,1.97 ± 0.04
ARLPPRATNCRKRKCGH [RPL40A],2.98 ± 0.094,3.3 ± 0.15,3.2 ± 0.1,3.14 ± 0.11
RFSPDEDFEHNNLSSMN [MCD1],2.69 ± 0.094,3.35 ± 0.18,3.09 ± 0.091,3.18 ± 0.074
THIAESAKEIAKASGCD [MCD1],3.16 ± 0.14,3.4 ± 0.19,3.15 ± 0.049,3.34 ± 0.075
DAIWSLVFQLAKNFSAQ [SRB8],2.08 ± 0.049,2.56 ± 0.053,2.4 ± 0.054,2.61 ± 0.041
EFNFTNLQAKPLVGKPK [YAR002W/NUP60],2.1 ± 0.06,2.35 ± 0.055,2.27 ± 0.077,2.25 ± 0.042
IVQFTYGGDGLDPLEME [RPO31],,3.09 ± 0.2,2.55 ± 0.27,
SKCLNLISDSNINNSSV [SWI3],1.94 ± 0.072,1.91 ± 0.065,1.6 ± 0.11,2.41 ± 0.039
TINISLSFSWAILLIIN [NUT1],1.35 ± 0.06,1.61 ± 0.054,1.93 ± 0.078,2.43 ± 0.044
ALLRPGRLDRKVEIPLP [RPT4],2.99 ± 0.28,,,
QTEIKDIILGQNIKAPS [PRP8],2.6 ± 0.087,3.04 ± 0.074,2.58 ± 0.11,2.78 ± 0.07
TEVRAEDEAALAKLVST [RPL8A],2.9 ± 0.062,2.93 ± 0.06,2.59 ± 0.055,2.74 ± 0.048
ESFESYHNLTTHNSYEK [RPN6],3.19 ± 0.068,3.17 ± 0.065,2.84 ± 0.075,3.28 ± 0.044
RYRLLSDVSDFEGWGHE [RPN1],2.63 ± 0.12,3.35 ± 0.1,3.07 ± 0.09,2.83 ± 0.12
ENITNKVTEKVLTQLTA [CSI1],2.62 ± 0.051,2.22 ± 0.037,2.4 ± 0.041,2.69 ± 0.041
DLFGDSNKSNSTNESNK [SSN2],3.2 ± 0.078,3.3 ± 0.08,3.07 ± 0.064,3.29 ± 0.058
DTKKVKESPANDQASNE [YIL149C/MLP2],3.17 ± 0.13,3.29 ± 0.1,3.12 ± 0.2,3.15 ± 0.19
LLIRSKTEDPKGGIIAS [YML031W/NDC1],2.37 ± 0.14,2.36 ± 0.085,2.28 ± 0.085,2.66 ± 0.17

Sequence,protein stability index (doa10∆),protein stability index (pdr5∆),protein stability index (san1∆),protein stability index (ubr1∆)
SNVFGSNNSTTNTFGSN [YJL041W/NSP1],3.08 ± 0.063,3.44 ± 0.076,3.22 ± 0.043,3.47 ± 0.054
KAKSHFTNIISRNKALE [YJL039C/NUP192],2.66 ± 0.079,2.01 ± 0.053,2.39 ± 0.13,2.68 ± 0.075
EPLAPGNDNLIKAPTVA [YLR335W/NUP2],2.57 ± 0.067,2.77 ± 0.064,2.53 ± 0.053,2.88 ± 0.059
LQVGDVVSTTAVIESVV [FAS1],2.33 ± 0.056,1.59 ± 0.056,2.04 ± 0.091,2.01 ± 0.049
MAPSAKATAAKKAVVKG [RPL25],,2.56 ± 0.15,,
FQAQQAQQAQQAQQAQQ [SNF2],2.86 ± 0.052,3 ± 0.046,2.85 ± 0.035,2.73 ± 0.035
GLSPKKVGEDIAKATKE [RPL12A],3.03 ± 0.16,3.22 ± 0.14,3.13 ± 0.18,2.77 ± 0.24
EALVERRRAFKRSQKKH [RPB4],3.12 ± 0.099,3.2 ± 0.081,3.22 ± 0.062,3.31 ± 0.11
AQFVSNKQYHQANSNLT [NUT1],2.94 ± 0.081,3.21 ± 0.076,3 ± 0.1,3.23 ± 0.092
NPHDGVNSIALFVGTDR [RPN14],2.08 ± 0.14,2.42 ± 0.096,2.33 ± 0.076,2.99 ± 0.11
KIFVETKFSKLIGRPPL [FAS1],1.97 ± 0.29,2.54 ± 0.093,2.35 ± 0.11,1.79 ± 0.059
LKKLQSDIESANNQEYD [SMC1],3.19 ± 0.076,3.2 ± 0.097,3.16 ± 0.062,3.13 ± 0.076
ARENAPSIIFIDEVDSI [RPT3],2.75 ± 0.14,2.46 ± 0.11,2.74 ± 0.06,2.41 ± 0.066
GWYHSGPKLRASDLKIN [RPN8],1.57 ± 0.036,1.95 ± 0.035,1.59 ± 0.058,2.06 ± 0.035
LESADKQLEKRDYQRIN [POP4],2.71 ± 0.052,2.72 ± 0.055,2.64 ± 0.065,3.18 ± 0.059
RDYLVDTLKLRENLHIL [RRP6],3.52 ± 0.098,3.29 ± 0.096,3.4 ± 0.069,3.29 ± 0.084
KGSSLASAASEAIRDPK [SSN8],2.43 ± 0.053,2.62 ± 0.063,2.65 ± 0.065,2.99 ± 0.049
MNMFGGGMGGGMGGGMP [SRP54],1.38 ± 0.055,2.43 ± 0.21,1.69 ± 0.17,1.53 ± 0.18
FLQRIDFQIDGNIFELL [RRI2],2.63 ± 0.1,2.92 ± 0.071,2.37 ± 0.07,2.64 ± 0.048
PTESYLQYIIHDTLNNE [BRR2],2.22 ± 0.058,2.43 ± 0.07,2.37 ± 0.097,2.26 ± 0.065
TSPVTGATEKRKCAKPF [CSL4],1.89 ± 0.23,1.27 ± 0.15,,
MGRVIRNQRKGAGSIFT [RPL2A],2.95 ± 0.2,3.28 ± 0.12,2.77 ± 0.25,2.75 ± 0.15
